Where two headings read alike, the source gives them in different places. Ends that are not written are not given here. * marks the point of attachment. Dansyl = CN(C)c1cccc2c(S(=O)(=O)*)cccc12

In general, Kd refers to the concentration at which binding is half-saturated. Higher therefore signals a looser complex.

Test [1] addresses T1, BACH1-P phosphopeptide (Homo sapiens, UniProt Q9BX63, also: phosphoserine (position not given here)).
T1 chain: SRSTSPTFNK
Put plainly: ITC. On the technique in general: In ITC the heat of successive injections is recorded.

Test [2] has as its target T2, bBACH1-P phosphopeptide (Homo sapiens, UniProt Q9BX63, also: phosphoserine (position not given here), biotin (position not given here)).
T2 chain: SRSTSPTFNK
Put plainly: SPR steady-state.

Test [3] concerns the target T1, BACH1-P phosphopeptide. The test can be described thus: ITC.
In test [4] the target is T3, dBACH1-P phosphopeptide (Homo sapiens, UniProt Q9BX63, also: phosphoserine (position not given here)).
T3 chain: Dansyl-SRSTSPTFNK
The test can be described thus: stopped-flow fluorescence.

Test [5] addresses T4, CtIP phosphopeptide phosphopeptide (Homo sapiens, UniProt Q99708, also: phosphoserine (position not given here)).
T4 chain: PTRVSSPVFGAT
Put plainly: SPR.

Test [6] concerns the target T2, bBACH1-P phosphopeptide. Put plainly: SPR steady-state.
For test [7], the target named is T2, bBACH1-P phosphopeptide. Put plainly: SPR kinetics. (Surface plasmon resonance follows binding to a sensor surface in real time, without labels.)
For test [8], the target named is T1, BACH1-P phosphopeptide. Put plainly: ITC.
Test [9] has as its target T2, bBACH1-P phosphopeptide. Put plainly: SPR steady-state.
In test [10] the target is T2, bBACH1-P phosphopeptide. The test can be described thus: SPR kinetics.
For test [11], the target named is T2, bBACH1-P phosphopeptide. Put plainly: SPR steady-state.
For test [12], the target named is T1, BACH1-P phosphopeptide. The test can be described thus: ITC.
The target of test [13] is T2, bBACH1-P phosphopeptide. Put plainly: ITC.
In test [14] the target is T1, BACH1-P phosphopeptide. Put plainly: ITC.
Test [15] has as its target T3, dBACH1-P phosphopeptide. Put plainly: fluorescence anisotropy. A general note: Fluorescence polarisation rises when a labelled molecule tumbles more slowly, as on binding a larger partner.
For test [16], the target named is T3, dBACH1-P phosphopeptide. Put plainly: stopped-flow fluorescence.

B1: BRCA1-BRCT 1646-1859 (protein)
chain: VNKRMSMVVSGLTPEEFMLVYKFARKHHITLTNLITEETTHVVMKTDAEFVCERTLKYFLGIAGGKWVVSYFWVTQSIKERKMLNEHDFEVRGDVVNGRNHQGPKRARESQDRKIFRGLEICCYGPFTNMPTDQLEWMVQLCGASVVKELSSFTLGTGVHPIVVVQPDAWTEDNGFHAIGQMCEAPVVTREWVLDSVALYQCQELDTYLIPQIP
In the case of B1, the Kd in the test with BACH1-P phosphopeptide [1] stood at 0.5 µM; with bBACH1-P phosphopeptide [2], 0.53 µM; with BACH1-P phosphopeptide [3], 0.41 µM; with dBACH1-P phosphopeptide [4] it was 0.2 µM; in test [5] it was 1.3 µM; with bBACH1-P phosphopeptide [6] it was 0.56 µM. Moreover, the Kd with bBACH1-P phosphopeptide [7] came out at 0.09 µM; with BACH1-P phosphopeptide [8] it was 0.49 µM; with bBACH1-P phosphopeptide [9], 0.35 µM; with bBACH1-P phosphopeptide [10], 0.43 µM; with bBACH1-P phosphopeptide [11], 0.26 µM; with BACH1-P phosphopeptide [12], 0.28 µM. Moreover, the Kd with bBACH1-P phosphopeptide [13] was 0.23 µM; with BACH1-P phosphopeptide [14] it was 0.33 µM; with dBACH1-P phosphopeptide [15], 0.18 µM; with dBACH1-P phosphopeptide [16], 0.11 µM.

The values above are taken from publication PMC2574583 (2008).
